Laboratory results published in article PMC7674646, “Structural and Functional Analyses of the Transcription Repressor DgoR From Escherichia coli Reveal a Divalent Metal-Containing D-Galactonate Binding Pocket” (Frontiers in Microbiology, 2020).
Residue numbers refer to the chain shown, from its start.

What was measured:
Assay in all cases: EMSA
Settings in all cases: EMSA: 25 mM Tris-HCl pH 8.0, 50 mM KCl, 2.5 mM MgCl2, 5% glycerol, 1 mM DTT, 100 ug/mL salmon sperm DNA, 100 ng Cy5 probe in 20 ul, 25 C 20 min; native PAGE at …
[1] = molecular target: T1, DgoR D184A D184A (Escherichia coli) (UniProt P31460)
T1 sequence: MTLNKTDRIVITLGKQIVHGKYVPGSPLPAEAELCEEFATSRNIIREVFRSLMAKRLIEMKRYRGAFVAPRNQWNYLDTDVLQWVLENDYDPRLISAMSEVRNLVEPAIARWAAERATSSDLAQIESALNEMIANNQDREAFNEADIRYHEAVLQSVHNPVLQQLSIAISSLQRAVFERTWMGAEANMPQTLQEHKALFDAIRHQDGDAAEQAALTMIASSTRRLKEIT

[2] = molecular target: T2, DgoR Q173A Q173A (Escherichia coli) (UniProt P31460)
T2 sequence: T1 sequence with Q173A, A184D

[3] = molecular target: T3, DgoR W181A W181A (Escherichia coli) (UniProt P31460)
T3 sequence: T1 sequence with W181A, A184D

[4] = molecular target: T4, DgoR R224A R224A (Escherichia coli) (UniProt P31460)
T4 sequence: T1 sequence with A184D, R224A

[5] = molecular target: T5, DgoR R102A R102A (Escherichia coli) (UniProt P31460)
T5 sequence: T1 sequence with R102A, A184D

[6] = molecular target: T6, DgoR R179A R179A (Escherichia coli) (UniProt P31460)
T6 sequence: T1 sequence with R179A, A184D

[7] = molecular target: T7, DgoR S221A S221A (Escherichia coli) (UniProt P31460)
T7 sequence: T1 sequence with A184D, S221A

[8] = molecular target: T8, DgoR H150A H150A (Escherichia coli) (UniProt P31460)
T8 sequence: T1 sequence with H150A, A184D

[9] = molecular target: T9, DgoR H195A H195A (Escherichia coli) (UniProt P31460)
T9 sequence: T1 sequence with A184D, H195A

[10] = molecular target: T10, DgoR T191A T191A (Escherichia coli) (UniProt P31460)
T10 sequence: T1 sequence with A184D, T191A

[11] = molecular target: T11, DgoR (EcoDgoR) WT (Escherichia coli) (UniProt P31460)
T11 sequence: T1 sequence with A184D

[12] = molecular target: T12, DgoR R224E R224E (Escherichia coli) (UniProt P31460)
T12 sequence: T1 sequence with A184D, R224E

[13] = molecular target: T13, DgoR D146A D146A (Escherichia coli) (UniProt P31460)
T13 sequence: T1 sequence with D146A, A184D

With “TGTAAAACGACGGCCAGTGCATTGTTCTTTTTGTGATCTAAATTGTAGTACAACAATATAAGTTTGTACTACATTACACGCACGGCAAACGCGAACGTCATCACGCTGGTACTACAAAGTTGCCGCGTTATGCATCGATCGGGGTAAAGTAGAGAAGAACATACAGAGCACAAGGACTCTCCATGACTCTCAATAAAACCGATCGCATTGTC (double strand) [dgo cis-acting element (promoter region)]” the binding [1] was “binds more weakly”, the binding [2] was “binds more weakly” and the binding [3] was “binds”. The binding [4] was “binds more weakly”, the binding [5] was “binds more weakly” and the binding [6] was “binds”. The binding [7] was “binds”, the binding [8] was “binds more weakly” and the binding [9] was “binds more weakly”. For the same sequence, the binding [10] was “binds more weakly”, the binding [11] was “binds” and the binding [12] was “binds more weakly”. For the same sequence, the binding [13] was “binds”.
